Experimental data from the supplement of paper PMC5998384.

What was measured:
[1] = test system: HeLa Kyoto; assay: solubility in G1/S (NP-40 vs SDS abundance) (log2 ratio); higher = more soluble; details: cell cycle stage: G1/S
[2] = test system: HeLa Kyoto; assay: thermal stability score vs G1/S (z-score of summed log2 fold changes over temperatures); higher = more thermally stable than in G1/S
[3] = test system: HeLa Kyoto; assay: melting temperature (median over replicates), in situ; higher = more thermally stable
[4] = test system: HeLa Kyoto; assay: solubility change mitosis vs G1/S (difference of NP-40 vs SDS log2 ratios) (log2 ratio difference); higher = more soluble in mitosis
[5] = cell cycle stage: early G1 (4.5 h after nocodazole release)
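For melting temperature (median over replicates), in situ in this document: HeLa Kyoto cells synchronized by double thymidine or nocodazole block, proteins quantified by TMT10plex mass spectrometry, three independent biological replicates.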
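For solubility change mitosis vs G1/S (difference of NP-40 vs SDS log2 ratios) in this document: synchronized HeLa Kyoto cells (double thymidine block for G1/S, nocodazole release for mitosis), protein amounts in NP-40 versus SDS lysates quantified by mass spectrometry, three biological replicates.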
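For solubility in G1/S (NP-40 vs SDS abundance) in this document: HeLa Kyoto cells arrested at G1/S by double thymidine block, proteins quantified by TMT10plex mass spectrometry in mild NP-40 versus SDS extracts, three biological replicates.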
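For thermal stability score vs G1/S (z-score of summed log2 fold changes over temperatures) in this document: synchronized HeLa Kyoto cells, proteins quantified by TMT10plex mass spectrometry, three biological replicates, mitosis taken 0.5 h after nocodazole release, G1/S directly after double thymidine block.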

Sequence | solubility in G1/S (log2) [1] | thermal stability score [2, 5] | thermal stability score ([2]; cell cycle stage: mitosis) | melting temperature ([3]; cell cycle stage: G1/S) | melting temperature ([3]; cell cycle stage: mitosis) | solubility change mitosis (log2) [4]
MRNLKLFRTLEFRDIQGPGNPQCFSLRTEQGTVLIGSEHGLIEVDPVSREVKNEVSLVAEGFLPEDGSGRIVGVQDLLDQESVCVATASGDVILCSLSTQQLECVGSVASGISVMSWSPDQELVLLATGQQTLIMMTKDFEPILEQQIHQDDFGESKFITVGWGRKETQFHGSEGRQAAFQMQMHESALPWDDHRPQVTWRGDGQFFAVSVVCPETGARKVRVWNREFALQSTSEPVAGLGPALAWKPSGSLIASTQDKPNQQDIVFFEKNGLLHGHFTLPFLKDEVKVNDLLWNADSSVLAVWLEDLQREESSIPKTCVQLWTVGNYHWYLKQSLSFSTCGKSKIVSLMWDPVTPYRLHVLCQGWHYLAYDWHWTTDRSVGDNSSDLSNVAVIDGNRVLVTVFRQTVVPPPMCTYQLLFPHPVNQVTFLAHPQKSNDLAVLDASNQISVYKCGDCPSADPTVKLGAVGGSGFKVCLRTPHLEKRYKIQFENNEDQDVNPLKLGLLTWIEEDVFLAVSHSEFSPRSVIHHLTAASSEMDEEHGQLNVSSSAAVDGVIISLCCNSKTKSVVLQLADGQIFKYLWESPSLAIKPWKNSGGFPVRFPYPCTQTELAMIGEEECVLGLTDRCRFFINDIEVASNITSFAVYDEFLLLTTHSHTCQCFCLRDASFKTLQAGLSSNHVSHGEVLRKVERGSRIVTVVPQDTKLVLQMPRGNLEVVHHRALVLAQIRKWLDKLMFKEAFECMRKLRINLNLIYDHNPKVFLGNVETFIKQIDSVNHINLFFTELKEEDVTKTMYPAPVTSSVYLSRDPDGNKIDLVCDAMRAVMESINPHKYCLSILTSHVKKTTPELEIVLQKVHELQGNAPSDPDAVSAEEALKYLLHLVDVNELYDHSLGTYDFDLVLMVAEKSQKDPKEYLPFLNTLKKMETNYQRFTIDKYLKRYEKAIGHLSKCGPEYFPECLNLIKDKNLYNEALKLYSPSSQQYQDISIAYGEHLMQEHMYEPAGLMFARCGAHEKALSAFLTCGNWKQALCVAAQLNFTKDQLVGLGRTLAGKLVEQRKHIDAAMVLEECAQDYEEAVLLLLEGAAWEEALRLVYKYNRLDIIETNVKPSILEAQKNYMAFLDSQTATFSRHKKRLLVVRELKEQAQQAGLDDEVPHGQESDLFSETSSVVSGSEMSGKYSHSNSRISARSSKNRRKAERKKHSLKEGSPLEDLALLEALSEVVQNTENLKDEVYHILKVLFLFEFDEQGRELQKAFEDTLQLMERSLPEIWTLTYQQNSATPVLGPNSTANSIMASYQQQKTSVPVLDAELFIPPKINRRTQWKLSLLD [IKBKAP] | -0.206 | 0.962 | -0.0976 | 50.2 °C | 50 °C | -0.15
MRPMRIFVNDDRHVMAKHSSVYPTQEELEAVQNMVSHTERALKAVSDWIDEQEKGSSEQAESDNMDVPPEDDSKEGAGEQKTEHMTRTLRGVMRVGLVAKGLLLKGDLDLELVLLCKEKPTTALLDKVADNLAIQLAAVTEDKYEILQSVDDAAIVIKNTKEPPLSLTIHLTSPVVREEMEKVLAGETLSVNDPPDVLDRQKCLAALASLRHAKWFQARANGLKSCVIVIRVLRDLCTRVPTWGPLRGWPLELLCEKSIGTANRPMGAGEALRRVLECLASGIVMPDGSGIYDPCEKEATDAIGHLDRQQREDITQSAQHALRLAAFGQLHKVLGMDPLPSKMPKKPKNENPVDYTVQIPPSTTYAITPMKRPMEEDGEEKSPSKKKKKIQKKEEKAEPPQAMNALMRLNQLKPGLQYKLVSQTGPVHAPIFTMSVEVDGNSFEASGPSKKTAKLHVAVKVLQDMGLPTGAEGRDSSKGEDSAEETEAKPAVVAPAPVVEAVSTPSAAFPSDATAEQGPILTKHGKNPVMELNEKRRGLKYELISETGGSHDKRFVMEVEVDGQKFQGAGSNKKVAKAYAALAALEKLFPDTPLALDANKKKRAPVPVRGGPKFAAKPHNPGFGMGGPMHNEVPPPPNLRGRGRGGSIRGRGRGRGFGGANHGGYMNAGAGYGSYGYGGNSATAGYSQFYSNGGHSGNASGGGGGGGGGSSGYGSYYQGDNYNSPVPPKHAGKKQPHGGQQKPSYGSGYQSHQGQQQSYNQSPYSNYGPPQGKQKGYNHGQGSYSYSNSYNSPGGGGGSDYNYESKFNYSGSGGRSGGNSYGSGGASYNPGSHGGYGGGSGGGSSYQGKQGGYSQSNYNSPGSGQNYSGPPSSYQSSQGGYGRNADHSMNYQYR [ILF3] | -0.123 | -0.903 | -1.89 | 54.1 °C | 53.9 °C | 0.113
MRPPGFLSRAPSLNRAERGIWSCSMDQREPLPPAPAENEMKYDTNNNEEEEGEQFDFDSGDEIPEADRQAPSAPETGGAGASEAPAPTGGEDGAGAETTPVAEPTKLVLPMKVNPYSVIDITPFQEDQPPTPVPSAEEENVGLHVPCGYLVPVPCGYAVPSNLPLLLPAYSSPVIICATSLDEEAETPEVTEDRQPNSLSSEEPPTSEDQVGREDSALARWAADPANTAWMENPEEAIYDDVPRENSDSEPDEMIYDDVENGDEGGNSSLEYGWSSSEFESYEEQSDSECKNGIPRSFLRSNHKKQLSHDLTRLKEHYEKKMRDLMASTVGVVEIQQLRQKHELKMQKLVKAAKDGTKDGLERTRAAVKRGRSFIRTKSLIAQDHRSSLEEEQNLFIDVDCKHPEAILTPMPEGLSQQQVVRRYILGSVVDSEKNYVDALKRILEQYEKPLSEMEPKVLSERKLKTVFYRVKEILQCHSLFQIALASRVSEWDSVEMIGDVFVASFSKSMVLDAYSEYVNNFSTAVAVLKKTCATKPAFLEFLKQEQEASPDRTTLYSLMMKPIQRFPQFILLLQDMLKNTSKGHPDRLPLQMALTELETLAEKLNERKRDADQRCEVKQIAKAINERYLNKLLSSGSRYLIRSDDMIETVYNDRGEIVKTKERRVFMLNDVLMCATVSSRPSHDSRVMSSQRYLLKWSVPLGHVDAIEYGSSAGTGEHSRHLAVHPPESLAVVANAKPNKVYMGPGQLYQDLQNLLHDLNVIGQITQLIGNLKGNYQNLNQSVAHDWTSGLQRLILKKEDEIRAADCCRIQLQLPGKQDKSGRPTFFTAVFNTFTPAIKESWVNSLQMAKLALEEENHMGWFCVEDDGNHIKKEKHPLLVGHMPVMVAKQQEFKIECAAYNPEPYLNNESQPDSFSTAHGFLWIGSCTHQMGQIAIVSFQNSTPKVIECFNVESRILCMLYVPVEEKRREPGAPPDPETPAVRASDVPTICVGTEEGSISIYKSSQGSKKVRLQHFFTPEKSTVMSLACTSQSLYAGLVNGAVASYARAPDGSWDSEPQKVIKLGVLPVRSLLMMEDTLWAASGGQVFIISVETHAVEGQLEAHQEEGMVISHMAVSGVGIWIAFTSGSTLRLFHTETLKHLQDINIATPVHNMLPGHQRLSVTSLLVCHGLLMVGTSLGVLVALPVPRLQGIPKVTGRGMVSYHAHNSPVKFIVLATALHEKDKDKSRDSLAPGPEPQDEDQKDALPSGGAGSSLSQGDPDAAIWLGDSLGSMTQKSDLSSSSGSLSLSHGSSSLEHRSEDSTIYDLLKDPVSLRSKARRAKKAKASSALVVCGGQGHRRVHRKARQPHQEELAPTVMVWQIPLLNI [ARHGEF10] | -0.0539 | -0.414 | 0.205 | 49.3 °C | 49.8 °C | -0.182
MRQKHYLEAAARGLHDSCPGQARYLLWAYTSSHDDKSTFEETCPYCFQLLVLDNSRVRLKPKARLTPKIQKLLNREARNYTLSFKEAKMVKKFKDSKSVLLITCKTCNRTVKHHGKSRSFVSTLKSNPATPTSKLSLKTPERRTANPNHDMSGSKGKSPASVFRTPTSGQSVSTCSSKNTSKTKKHFSQLKMLLSQNESQKIPKVDFRNFLSSLKGGLLK [C18ORF21] | -0.722 | -0.862 | -0.417 |  | 46.8 °C | 2.72
